Positions count from the first letter of the chain named. Numbers in names are those of the source.
T1: hu-CD96 isoform 1 on HEK293T cells (human, UniProt P40200 22-585)
T1 construct: Origene RC213845, transient expression; also called HEK293T-CD96 (iso1)
T1 sequence: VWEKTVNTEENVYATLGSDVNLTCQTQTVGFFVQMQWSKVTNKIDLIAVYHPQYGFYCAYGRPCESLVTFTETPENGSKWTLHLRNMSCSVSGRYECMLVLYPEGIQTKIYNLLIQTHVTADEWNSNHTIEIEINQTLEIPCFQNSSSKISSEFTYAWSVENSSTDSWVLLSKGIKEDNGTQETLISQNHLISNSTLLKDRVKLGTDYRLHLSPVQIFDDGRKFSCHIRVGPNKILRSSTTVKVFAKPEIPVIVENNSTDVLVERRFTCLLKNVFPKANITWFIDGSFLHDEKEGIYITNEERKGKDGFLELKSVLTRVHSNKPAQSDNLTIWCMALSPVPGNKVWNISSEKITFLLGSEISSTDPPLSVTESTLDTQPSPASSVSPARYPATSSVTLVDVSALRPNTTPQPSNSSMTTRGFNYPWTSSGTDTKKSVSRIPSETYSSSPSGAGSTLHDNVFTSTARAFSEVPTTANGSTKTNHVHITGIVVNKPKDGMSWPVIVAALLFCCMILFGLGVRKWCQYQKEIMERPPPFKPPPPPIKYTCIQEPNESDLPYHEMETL

T2: cynomolgus monkey CD96 on cynomolgus monkey PBMCs (cynomolgus monkey, UniProt A0A2K5TWV6 22-569)
T2 construct: whole, on cells
T2 sequence: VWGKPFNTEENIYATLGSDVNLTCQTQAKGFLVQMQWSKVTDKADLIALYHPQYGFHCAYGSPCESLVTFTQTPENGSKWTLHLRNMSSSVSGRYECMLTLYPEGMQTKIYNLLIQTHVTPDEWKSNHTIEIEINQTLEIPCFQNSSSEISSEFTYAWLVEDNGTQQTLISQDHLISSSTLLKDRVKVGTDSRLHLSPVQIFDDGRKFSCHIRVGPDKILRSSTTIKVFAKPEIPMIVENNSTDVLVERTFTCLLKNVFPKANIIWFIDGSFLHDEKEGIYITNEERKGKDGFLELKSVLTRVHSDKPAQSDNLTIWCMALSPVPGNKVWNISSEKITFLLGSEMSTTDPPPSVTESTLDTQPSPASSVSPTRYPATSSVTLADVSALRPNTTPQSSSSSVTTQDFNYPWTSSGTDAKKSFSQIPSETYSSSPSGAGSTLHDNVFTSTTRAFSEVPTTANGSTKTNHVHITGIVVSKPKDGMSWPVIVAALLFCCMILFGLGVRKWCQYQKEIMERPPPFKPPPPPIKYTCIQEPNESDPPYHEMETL

T3: hu-CD96 isoform 2 on CHO cells (human, UniProt P40200 22-585)
T3 construct: also called CHO-CD96 (isoform 2); CD96-CHOs
T3 sequence: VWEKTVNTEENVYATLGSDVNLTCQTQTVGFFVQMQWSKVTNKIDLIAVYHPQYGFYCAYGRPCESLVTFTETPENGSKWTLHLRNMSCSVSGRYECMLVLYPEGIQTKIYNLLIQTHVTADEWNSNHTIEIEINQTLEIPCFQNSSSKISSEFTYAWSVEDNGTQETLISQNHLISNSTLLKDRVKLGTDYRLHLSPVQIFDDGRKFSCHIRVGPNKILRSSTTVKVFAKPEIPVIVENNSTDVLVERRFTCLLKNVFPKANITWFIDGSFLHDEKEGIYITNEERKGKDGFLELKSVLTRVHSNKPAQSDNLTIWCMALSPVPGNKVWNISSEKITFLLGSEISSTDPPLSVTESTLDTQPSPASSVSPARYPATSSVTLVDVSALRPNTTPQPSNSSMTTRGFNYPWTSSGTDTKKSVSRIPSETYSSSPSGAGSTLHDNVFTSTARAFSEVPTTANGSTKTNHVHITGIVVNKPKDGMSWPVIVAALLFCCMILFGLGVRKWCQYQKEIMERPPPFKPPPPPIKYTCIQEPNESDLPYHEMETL

B1: 9H4, purified hybridoma antibody (antibody, V domains shown)
VH: EVQLLETGGGLVKSGGSLKLSCAASGFTFSDYYMYWVRQTPEKRLEWVAAISDDGTYTYYPDSVKGRFTISRDNANNYLYLQMSSLKSEDTAIYYCAKAGSYDYFDVWGAGTTVTVSS
VL: DIVLTQSPASLAVSLGQRAIISCKASQSVTFADTGLMHWYQQKPGQQPKLLIYRASNLEVGVPTRFSGSGSGTDFTLNIHPVEEEDVATYYCQQSREYPWTFGGGTKLEIK
notes: murine hybridoma IgG
B2: 10G1 (clone 10G1.3G8), purified hybridoma antibody (antibody, V domains shown)
VH: QIQLVQSGPELKKPGETVKISCKASGYPFTTYGMSWVKQAPGKGLKWMGWINTDSGVPTYADDFKGRFAFSLETSANTAYLQINSLKNEDAATYFCARNIYYGWGNFDYWGQGTILTVSS
VL: DILMTQSPTTLSVTPGETVSLSCRASQDIYRNLHWYQQKSQGTPRLLIKHASDSISGIPSRFTGSGSGTDFTLSINSVKPEDEGIYYCLQGYSMPYTFGGGTKLEIK
notes: murine hybridoma IgG
B3: 7E5, purified hybridoma antibody (antibody, V domains shown)
VH: QVQLKESGPGLVAPSQSLSIICTVSGFSLTNYGIHWIRQPPGKGLEWLGIIWAGGSTNYNSALMSRLTISKDNSKSQVFLKMNSLQTNDTAIYYCARVSMMGFAYWGQGTLVTVSA
VL: QAVVTQESALTTSPGETVTLTCRSSTGAVTTSNYANWVQEKPDHLFTGLIGGTNNRAPGVPARFSGSLIGDKAALTITGAQTEDEAIYFCSLWYGSHWVFGGGTKLTVL
notes: murine hybridoma IgG
B4: mAb1.v7 IgG (humanized 12F8) (antibody, V domains shown)
VH: EVQLVQSGAEVKKPGASVKVSCKASGFTFTNNWMHWVRQAPGQGLEWIGMIHPNSGITNINEKFKNRVTMTTDTSTSTAYMELRSLRSEDTAVYYCRSDGTYEGYFDYWGQGTLVTVSS
VL: DIQLTQSPSSLSASVGDRVTITCKASQNVGTAIVWYQQKPGKAPKVLIYSASTRYTGVPSRFSGSGSGTDFTLTISSLQPEDFATYYCQQYSSSPLTFGQGTKVEIKG
notes: human IgG1 N297G
B5: h10G1 IgG (humanized 10G1) (antibody, V domains shown)
VH: EIQLVQSGSELKKPGASVKVSCKASGYPFTTYGMSWVRQAPGQGLEWMGWINTDSGVPTYADDFKGRFVFSLDTSVSTAYLQISSLKAEDTAVYFCARNIYYGWGNFDYWGQGTLVTVSS
VL: EIVMTQSPDFQSVTPKEKVTITCRASQDIYRNLHWYQQKPDQTPKLLIKHASDSISGIPSRFSGSGSGTDFTLTINSLEAEDAAAYYCLQGYSMPYTFGGGTKVEIKG
notes: human IgG1 N297G
B6: mAb1.v7.NGS10 IgG (antibody, V domains shown)
VH: B4 VH with W33F, M50F, P53A, T101I
VL: B4 VL
notes: human IgG1 N297G
B7: mAb1.v7.NGS11 IgG (antibody, V domains shown)
VH: B4 VH with W33F, M50F, P53A, T101V
VL: B4 VL
notes: human IgG1 N297G
B8: mAb1.v7.NGS9 IgG (antibody, V domains shown)
VH: B4 VH with W33F, P53A, T101V
VL: B4 VL
notes: human IgG1 N297G

Molecular target: T1, hu-CD96 isoform 1 on HEK293T cells
Assay: FACS, Ab 2 nM
Method: (§1) Isoform 1 of hu-CD96 (Origene, catalog #RC213845) was transiently expressed in HEK293T cells following standard lipofectamine or Fugene transfection protocol. […] Cells were washed, and binding was detected by incubation with anti-mouse IgG-FITC (Biolegend, catalog #406001) for 20 minutes at 4° C. Cell binding was analyzed by flow cytometry with a CytoFLEX (Beckman Coulter). Binding curves were calculated as a percentage of cells positive for bound antibody.

Binder	% positive [%]
B1	28.5
B2	48.1
B3	37.1
B4	27.3

Molecular target: T2, cynomolgus monkey CD96 on cynomolgus …
Assay: FACS, % positive curve
Method: The ability of the anti-CD96 antibodies to bind primary immune cells from human and cynomolgus monkey with lower level of receptor expression was measured. Human PBMCs (StemCell Technologies, catalog #70025) and cynomolgus monkey PBMCs (Primate Biologicals, catalog #CM-MC) were incubated with human TruStain FcX (Biolegend, catalog #422302) for 10 minutes at 4° C., followed by incubation with an anti-CD96 antibody for 20 minutes at 4° C. Cells were washed and the anti-CD96 antibody binding was detected by incubation with anti-mouse IgG-PE (Thermo Fisher, catalog #M30204) or anti-human IgG (Fab) 2-PE (Thermo Fisher, catalog #H10104) for 20 minutes at 4° C. Cells were washed, and immune subtypes were labeled with anti-CD3 (BD, catalog #557705), anti-CD4 (Biolegend, catalog #317424) and anti-CD8 (BD, catalog #557760) for 20 minutes at 4° C. Cell binding was analyzed by flow cytometry with a CytoFLEX (Beckman Coulter). Binding curves were calculated as a percentage of cells positive for bound antibody in the cell type of interest.

Binder	EC50 [nM]
B5	0.12
B6	0.024
B7	0.025
B8	0.073

Molecular target: T3, hu-CD96 isoform 2 on CHO cells
Assay: FACS, Ab 0.4 nM
Method: as §1
Isoform 2 of hu-CD96 (DNA construct: Origene, catalog #RC221005) was expressed on a single-cell-clone-derived CHO stable cell line. Binding of the anti-CD96 antibodies to the CHO cells were determined as described above with isoform 1 of hu-CD96.

Binder	% positive [%]
B1	24.1
B2	25
B3	44.1
B4	17.7

Molecular target: T1, hu-CD96 isoform 1 on HEK293T cells
Assay: FACS, Ab 10 nM
Method: as §1

Binder	% positive [%]
B1	48.4
B2	53.4
B3	47.4
B4	48.8

— US12365732 (23ANDME, dated 2025)
